In patent publication US20240270846A1 (published 2024):
Residue numbers refer to the chain shown, from its start. Names may count otherwise. Blank lines part the entries; values can stand above or below the binder they belong to.

Target: T1, CD3 epsilon homodimer protein (UniProt P07766 23-126)
T1 construct: also called CD3 (CD3 epsilon)
Test: SPR Biacore T200, antibody over immobilised CD3e homodimer;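 also: CD3 epsilon homodimer amine-coupled on a CM4 chip, run at 25 °C in HBS-EP+, Z = bound amount of each single-residue H chain variant over that of the parent antibody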
Experimental: An appropriate amount of CD3 epsilon homodimer protein was immobilized onto Sensor chip CM4 (GE Healthcare Japan Corp.) by the amine coupling method. Then, the antibody having an appropriate concentration was injected thereto as an analyte and allowed to interact with the CD3 epsilon homodimer protein on the sensor chip. Then, the sensor chip was regenerated by the injection of 10 mmol/L glycine-HCl (pH 1.5). The assay was conducted at 25 degrees C., and HBS-EP+(GE Healthcare Japan Corp.) was used as a running buffer. […] Each parameter was calculated using Biacore T200 Evaluation Software (GE Healthcare Japan Corp.).
Specifically, when the amount of the antibody comprising CE115HA000 bound was defined as X and the amount of the H chain one-amino acid altered form bound was defined as Y, a value of Z (ratio of amounts bound)=Y/X was used.

T1 sequence (P07766 23-126): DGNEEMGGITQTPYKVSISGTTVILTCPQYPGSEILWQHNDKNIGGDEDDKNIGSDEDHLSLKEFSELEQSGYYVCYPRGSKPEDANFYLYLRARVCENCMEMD

ratio of amounts bound (Z=Y/X vs CE115HA000): 0.9
B1: CE115HA000 R16Q one-arm antibody (antibody, human IgG1, kappa, L234A L235A, N297A, name in Kabat numbering)
heavy: QVQLVESGGGVVQPGQSLRLSCAASGFTFSNAWMHWVRQAPGKGLEWVAQIKAKSNNYATYYAESVKGRFTISRDDSKNSLYLQMNSLKTEDTAVYYCRYVHYGAYYGVDAWGQGTTVTVSSASTKGPSVFPLAPSSKSTSGGTAALGCLVKDYFPEPVTVSWNSGALTSGVHTFPAVLQSSGLYSLSSVVTVPSSSLGTQTYICNVNHKPSNTKVDKKVEPKSCDKTHTCPPCPAPEAAGGPSVFLFPPKPKDTLMISRTPEVTCVVVDVSHEDPEVKFNWYVDGVEVHNAKTKPREEQYASTYRVVSVLTVLHQDWLNGKEYKCKVSNKALPAPIEKTISKAKGQPREPQVYTLPPSRCELTKNQVSLSCAVKGFYPSDIAVEWESNGQPENNYKTTPPVLDSDGSFFLVSKLTVDKSRWQQGNVFSCSVMHEALHNHYTQKSLSLSPDYKDDDDK
chain: EPKSSDKTHTCPPCPAPELLGGPSVFLFPPKPKDTLMISRTPEVTCVVVDVSHEDPEVKFNWYVDGVEVHNAKTKPREEQYNSTYRVVSVLTVLHQDWLNGKEYKCKVSNKALPAPIEKTISKAKGQPREPQVCTLPPSRDELTKNQVSLWCLVKGFYPSDIAVEWESNGQPENNYKTTPPVLDSDGSFFLYSKLTVDKSRWQQGNVFSCSVMHEALHNRYTQKSLSLSP
light: DIVMTQSPLSLPVTPGEPASISCRSSQSLVHSNRNTYLHWYQQKPGQAPRLLIYKVSNRFSGVPDRFSGSGSGTDFTLKISRVEAEDVGVYYCGQGTQVPYTFGQGTKLEIKRTVAAPSVFIFPPSDEQLKSGTASVVCLLNNFYPREAKVQWKVDNALQSGNSQESVTEQDSKDSTYSLSSTLTLSKADYEKHKVYACEVTHQGLSSPVTKSFNRGEC
notes: one-arm antibody

ratio of amounts bound (Z=Y/X vs CE115HA000): 0.96
B2: CE115HA000 S52cA one-arm antibody (antibody, human IgG1, kappa, L234A L235A, N297A, name in Kabat numbering)
heavy: B1 heavy with Q16R, S55A
chain: B1 chain
light: B1 light
notes: one-arm antibody

ratio of amounts bound (Z=Y/X vs CE115HA000): 0.98
B3: CE115HA000 T57A one-arm antibody (antibody, human IgG1, kappa, L234A L235A, N297A, name in Kabat numbering)
heavy: B1 heavy with Q16R, T60A
chain: B1 chain
light: B1 light
notes: one-arm antibody

ratio of amounts bound (Z=Y/X vs CE115HA000): 0.86
B4: CE115HA000 S30D one-arm antibody (antibody, human IgG1, kappa, L234A L235A, N297A, name in Kabat numbering)
heavy: B1 heavy with Q16R, S30D
chain: B1 chain
light: B1 light
notes: one-arm antibody

ratio of amounts bound (Z=Y/X vs CE115HA000): 0.61
B5: CE115HA000 T57I one-arm antibody (antibody, human IgG1, kappa, L234A L235A, N297A, name in Kabat numbering)
heavy: B1 heavy with Q16R, T60I
chain: B1 chain
light: B1 light
notes: one-arm antibody

ratio of amounts bound (Z=Y/X vs CE115HA000): 0.6
B6: CE115HA000 S52cD one-arm antibody (antibody, human IgG1, kappa, L234A L235A, N297A, name in Kabat numbering)
heavy: B1 heavy with Q16R, S55D
chain: B1 chain
light: B1 light
notes: one-arm antibody

ratio of amounts bound (Z=Y/X vs CE115HA000): 1.19
B7: CE115HA000 S62K one-arm antibody (antibody, human IgG1, kappa, L234A L235A, N297A, name in Kabat numbering)
heavy: B1 heavy with Q16R, S65K
chain: B1 chain
light: B1 light
notes: one-arm antibody

ratio of amounts bound (Z=Y/X vs CE115HA000): 1.05
B8: CE115HA000 S74A one-arm antibody (antibody, human IgG1, kappa, L234A L235A, N297A, name in Kabat numbering)
heavy: B1 heavy with Q16R, S77A
chain: B1 chain
light: B1 light
notes: one-arm antibody

ratio of amounts bound (Z=Y/X vs CE115HA000): 1.01
B9: CE115HA000 S30G one-arm antibody (antibody, human IgG1, kappa, L234A L235A, N297A, name in Kabat numbering)
heavy: B1 heavy with Q16R, S30G
chain: B1 chain
light: B1 light
notes: one-arm antibody

ratio of amounts bound (Z=Y/X vs CE115HA000): 0.8
B10: CE115HA000 R19T one-arm antibody (antibody, human IgG1, kappa, L234A L235A, N297A, name in Kabat numbering)
heavy: B1 heavy with Q16R, R19T
chain: B1 chain
light: B1 light
notes: one-arm antibody

ratio of amounts bound (Z=Y/X vs CE115HA000): 0.91
B11: CE115HA000 T28S one-arm antibody (antibody, human IgG1, kappa, L234A L235A, N297A, name in Kabat numbering)
heavy: B1 heavy with Q16R, T28S
chain: B1 chain
light: B1 light
notes: one-arm antibody

ratio of amounts bound (Z=Y/X vs CE115HA000): 1.32
B12: CE115HA000 T57K one-arm antibody (antibody, human IgG1, kappa, L234A L235A, N297A, name in Kabat numbering)
heavy: B1 heavy with Q16R, T60K
chain: B1 chain
light: B1 light
notes: one-arm antibody

ratio of amounts bound (Z=Y/X vs CE115HA000): 1
B13: CE115HA000 V11L one-arm antibody (antibody, human IgG1, kappa, L234A L235A, N297A, name in Kabat numbering)
heavy: B1 heavy with V11L, Q16R
chain: B1 chain
light: B1 light
notes: one-arm antibody

ratio of amounts bound (Z=Y/X vs CE115HA000): 0.92
B14: CE115HA000 S62E one-arm antibody (antibody, human IgG1, kappa, L234A L235A, N297A, name in Kabat numbering)
heavy: B1 heavy with Q16R, S65E
chain: B1 chain
light: B1 light
notes: one-arm antibody

ratio of amounts bound (Z=Y/X vs CE115HA000): 1.13
B15: CE115HA000 S52cF one-arm antibody (antibody, human IgG1, kappa, L234A L235A, N297A, name in Kabat numbering)
heavy: B1 heavy with Q16R, S55F
chain: B1 chain
light: B1 light
notes: one-arm antibody

ratio of amounts bound (Z=Y/X vs CE115HA000): 0.93
B16: CE115HA000 S52cV one-arm antibody (antibody, human IgG1, kappa, L234A L235A, N297A, name in Kabat numbering)
heavy: B1 heavy with Q16R, S55V
chain: B1 chain
light: B1 light
notes: one-arm antibody

ratio of amounts bound (Z=Y/X vs CE115HA000): 0.92
B17: CE115HA000 S62D one-arm antibody (antibody, human IgG1, kappa, L234A L235A, N297A, name in Kabat numbering)
heavy: B1 heavy with Q16R, S65D
chain: B1 chain
light: B1 light
notes: one-arm antibody

ratio of amounts bound (Z=Y/X vs CE115HA000): 0.56
B18: CE115HA000 T28D one-arm antibody (antibody, human IgG1, kappa, L234A L235A, N297A, name in Kabat numbering)
heavy: B1 heavy with Q16R, T28D
chain: B1 chain
light: B1 light
notes: one-arm antibody

ratio of amounts bound (Z=Y/X vs CE115HA000): 1.04
B19: CE115HA000 S52cQ one-arm antibody (antibody, human IgG1, kappa, L234A L235A, N297A, name in Kabat numbering)
heavy: B1 heavy with Q16R, S55Q
chain: B1 chain
light: B1 light
notes: one-arm antibody

ratio of amounts bound (Z=Y/X vs CE115HA000): 1.19
B20: CE115HA000 S52cK one-arm antibody (antibody, human IgG1, kappa, L234A L235A, N297A, name in Kabat numbering)
heavy: B1 heavy with Q16R, S55K
chain: B1 chain
light: B1 light
notes: one-arm antibody

ratio of amounts bound (Z=Y/X vs CE115HA000): 1.11
B21: CE115HA000 S52cY one-arm antibody (antibody, human IgG1, kappa, L234A L235A, N297A, name in Kabat numbering)
heavy: B1 heavy with Q16R, S55Y
chain: B1 chain
light: B1 light
notes: one-arm antibody

ratio of amounts bound (Z=Y/X vs CE115HA000): 0.97
B22: CE115HA000 S52cG one-arm antibody (antibody, human IgG1, kappa, L234A L235A, N297A, name in Kabat numbering)
heavy: B1 heavy with Q16R, S55G
chain: B1 chain
light: B1 light
notes: one-arm antibody

ratio of amounts bound (Z=Y/X vs CE115HA000): 0.98
B23: CE115HA000 S52cL one-arm antibody (antibody, human IgG1, kappa, L234A L235A, N297A, name in Kabat numbering)
heavy: B1 heavy with Q16R, S55L
chain: B1 chain
light: B1 light
notes: one-arm antibody
